According to the supplement of paper PMC11316812:
± gives the standard deviation of the averaged measurements.

Tests used:
MCF7 = assay: percentage of EdU-negative (G0-arrested) nuclei per well, 72 h; higher = more G0 arrest; details: reference: sequence is the full UniProt precursor, the tested protein was the secreted form or ectodomain
hTERT-HMEC = assay: as above; details: reference: sequence is the full UniProt precursor, the tested protein was the secreted form or ectodomain
[1] = protein concentration 0.0225 µM
[2] = protein concentration 0.00714286 µM
[3] = protein concentration 0.0714286 µM
[4] = protein concentration 0.01125 µM
[5] = protein concentration 0.1125 µM
[6] = protein concentration 0.03125 µM
[7] = protein concentration 0.3125 µM
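Also: secreted proteins added to cultured cells, EdU pulse at the end, nuclei found by Hoechst imaging, EdU status from nuclear versus surrounding ring intensity ratio, PBS as neutral control.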

| Sequence | percentage of EdU-negative (MCF7; [1]) | percentage of EdU-negative (MCF7; protein concentration 0.225 µM) | percentage of EdU-negative (hTERT-HMEC; [1]) | percentage of EdU-negative (hTERT-HMEC; protein concentration 0.225 µM) | further results |
| --- | --- | --- | --- | --- | --- |
| MGRRDAQLLAALLVLGLCALAGSEKPSPCQCSRLSPHNRTNCGFPGITSDQCFDNGCCFDSSVTGVPWCFHPLPKQESDQCVMEVSDRRNCGYPGISPEECASRKCCFSNFIFEVPWCFFPKSVEDCHY | 23 ± 1.6% | 24.8 ± 1.3% | 5.31 ± 1.5% | 5.92 ± 0.79% | – |
| MGSGAGELGRAERLPVLFLFLLSLFCPALCEQIRYRIPEEMPKGSVVGNLATDLGFSVQELPTRKLRVSSEKPYFTVSAESGELLVSSRLDREEICGKKPACALEFEAVAENPLNFYHVNVEIEDINDHTPKFTQNSFELQISESAQPGTRFILEVAEDADIGLNSLQKYKLSLNPSFSLIIKEKQDGSKYPELALEKTLDREQQSYHRLVLTALDGGHPPLSGTTELRIQVTDANDNPPVFNRDVYRVSLRENVPPGTTVLQVSATDQDEGINSEITYSFYRTGQIFSLNSKSGEITTQKKLDFEETKEYSMVVEGRDGGGLVAQCTVEINIQDENDNSPEVTFHSLLEMILENAVPGTLIALIKIHDQDSGENGEVNCQLQGEVPFKIISSSKNSYKLVTDGTLDREQTPEYNVTITATDRGKPPLSSSISVILHIRDVNDNAPVFHQASYLVSVPENNPPGASIAQVCASDLDLGLNGQVSYSIMASDLEPLALASYVSMSAQSGVVFAQRAFDYEQLRTFELTLQARDQGSPALSANVSLRVLVGDRNDNAPRVLYPALGPDGSALFDMVPRAAEPGYLVTKVVAVDADSGHNAWLSYHVLQASEPGLFSLGLRTGEVRTARALGDRDAARQRLLVAVRDGGQPPLSATATLHLVFADSLQEVLPDITDRPVPSDPQAELQFYLVVALALISVLFLLAVILAVALRLRRSSSPAAWSCFQPGLCVKSGPVVPPNYSQGTLPYSYNLCVAHTGKTEFNFLKCSEQLSSGQDILCGDSSGALFPLCNSSESTSHPELQAPPNTDWRFSQAQRPGTSGSQNGDDTGTWPNNQFDTEMLQAMILASASEAADGSSTLGGGAGTMGLSARYGPQFTLQHVPDYRQNVYIPGSNATLTNAAGKRDGKAPAGGNGNKKKSGKKEKK [Q9Y5G0] | – | – | – | – | percentage of EdU-negative (MCF7; [2]): 26.7 ± 4%; percentage of EdU-negative (MCF7; [3]): 34.45 ± 0.24%; percentage of EdU-negative (hTERT-HMEC; [2]): 5.16 ± 0.12%; percentage of EdU-negative (hTERT-HMEC; [3]): 11.4 ± 4.3% |
| MGSGPRGALSLLLLLLAPPSRPAAGCPAPCSCAGTLVDCGRRGLTWASLPTAFPVDTTELVLTGNNLTALPPGLLDALPALRTAHLGANPWRCDCRLVPLRAWLAGRPERAPYRDLRCVAPPALRGRLLPYLAEDELRAACAPGPLCWGALAAQLALLGLGLLHALLLVLLLCRLRRLRARARARAAARLSLTDPLVAERAGTDES | 23.5 ± 3% | 27.189 ± 0.018% | 5.41 ± 0.22% | 6.21 ± 0.79% | – |
| MGSGRRALSAVPAVLLVLTLPGLPVWAQNDTEPIVLEGKCLVVCDSNPATDSKGSSSSPLGISVRAANSKVAFSAVRSTNHEPSEMSNKTRIIYFDQILVNVGNFFTLESVFVAPRKGIYSFSFHVIKVYQSQTIQVNLMLNGKPVISAFAGDKDVTREAATNGVLLYLDKEDKVYLKLEKGNLVGGWQYSTFSGFLVFPL [Q9NTU7] | 23.4 ± 2% | 25.2 ± 2.2% | 5.12 ± 0.27% | 4.5 ± 0.36% | – |
| MGSPRSALSCLLLHLLVLCLQAQEGPGRGPALGRELASLFRAGREPQGVSQQHVREQSLVTDQLSRRLIRTYQLYSRTSGKHVQVLANKRINAMAEDGDPFAKLIVETDTFGSRVRVRGAETGLYICMNKKGKLIAKSNGKGKDCVFTEIVLENNYTALQNAKYEGWYMAFTRKGRPRKGSKTRQHQREVHFMKRLPRGHHTTEQSLRFEFLNYPPFTRSLRGSQRTWAPEPR | – | – | – | – | percentage of EdU-negative (MCF7; [4]): 25.1 ± 1.4%; percentage of EdU-negative (MCF7; [5]): 25.58 ± 0.037%; percentage of EdU-negative (hTERT-HMEC; [4]): 5.64 ± 0.65%; percentage of EdU-negative (hTERT-HMEC; [5]): 11 ± 1.7% |
| MGSRGQGLLLAYCLLLAFASGLVLSRVPHVQGEQQEWEGTEELPSPPDHAERAEEQHEKYRPSQDQGLPASRCLRCCDPGTSMYPATAVPQINITILKGEKGDRGDRGLQGKYGKTGSAGARGHTGPKGQKGSMGAPGERCKSHYAAFSVGRKKPMHSNHYYQTVIFDTEFVNLYDHFNMFTGKFYCYVPGLYFFSLNVHTWNQKETYLHIMKNEEEVVILFAQVGDRSIMQSQSLMLELREQDQVWVRLYKGERENAIFSEELDTYITFSGYLVKHATEP [Q9BXJ1] | 24.69 ± 0.17% | 23.7 ± 2.1% | 4.31 ± 0.1% | 4.49 ± 0.49% | – |
| MGSSSFLVLMVSLVLVTLVAVEGVKEGIEKAGVCPADNVRCFKSDPPQCHTDQDCLGERKCCYLHCGFKCVIPVKELEEGGNKDEDVSRPYPEPGWEAKCPGSSSTRCPQK [Q8WWY7] | – | – | – | – | percentage of EdU-negative (MCF7; [6]): 26.5 ± 3.1%; percentage of EdU-negative (MCF7; [7]): 24 ± 2.8%; percentage of EdU-negative (hTERT-HMEC; [6]): 5.3 ± 0.5%; percentage of EdU-negative (hTERT-HMEC; [7]): 5.28 ± 0.67% |
